Measurements: patent publication US20250197490A1 (HBM ALPHA THERAPEUTICS, published 2025)

T1: corticotropin-releasing hormone (CRH) peptide (human and mouse, UniProt P01143 145-185 (rat entry), not fully specified)
T1 peptide: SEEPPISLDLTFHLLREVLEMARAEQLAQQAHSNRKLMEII


Molecular target: T1, corticotropin-releasing hormone (CRH) …
Assay: cell-based or functional assay

Row | hCRHR1-Luc 0.5 nM CRH IC50 | Binder
1 | 0.624 nM | PR302334-1 (antibody, human IgG1, kappa, V domains shown) VH: EVKLVESGGGLVKPGGSLKLSCAASGFTFSTYAMSWVRQTPEKRLEWVASIRSGGTTYYPDSVKGRFTISRDNARNILYLQMSSLRSEDTAIYYCTRGIDWGQGTLVTVSA VL: EIVMTQSPATLSVSPGERATLSCKASQSVNNDVAWYQQKPGQAPRLLIYYASNRYTGIPARFSGSGSGTEFTLTISSLQSEDFAVYYCQQDYSSWTFGGGTKVEIKR
2 | 0.597 nM | PR302334-2 (antibody, human IgG1, kappa, V domains shown) VH: EVKLVESGGGLVKPGGSLKLSCAASGFTFSTYAMSWVRQTPEKRLEWVASIRSGGTTYYPDSVKGRFTISRDNARNILYLQMSSLRSEDTAIYYCTRGIDWGQGTLVTVSA VL: EIVMTQSPATLSVSPGERATLSCKASQSVNNDVAWYQQKPGQAPRLLIYYASNRYTGIPARFSGSGSGTEFTLTISSLQSEDLAVYFCQQDYSSWTFGGGTKVEIKR
3 | 0.542 nM | PR302334-3 (antibody, human IgG1, kappa, V domains shown) VH: EVKLVESGGGLVKPGGSLKLSCAASGFTFSTYAMSWVRQTPEKRLEWVASIRSGGTTYYPDSVKGRFTISRDNARNILYLQMSSLRSEDTAIYYCTRGIDWGQGTLVTVSA VL: DIVMTQSPDSLAVSLGERATINCKASQSVNNDVAWYQQKPGQPPRLLIYYASNRYTGVPDRFSGSGSGTDFTLTISSLQAEDVAVYYCQQDYSSWTFGGGTKVEIKR
4 | 0.553 nM | PR302334-4 (antibody, human IgG1, kappa, V domains shown) VH: EVKLVESGGGLVKPGGSLKLSCAASGFTFSTYAMSWVRQTPEKRLEWVASIRSGGTTYYPDSVKGRFTISRDNARNILYLQMSSLRSEDTAIYYCTRGIDWGQGTLVTVSA VL: DIVMTQSPDSLAVSLGERATINCKASQSVNNDVAWYQQKPGQPPRLLIYYASNRYTGVPDRFSGSGSGTDFTLTISSLQAEDLAVYFCQQDYSSWTFGGGTKVEIKR
5 | 1.36 nM | PR302334-27 (antibody, human IgG1, kappa, V domains shown) VH: EVQLVESGGGLVQPGGSLRLSCAASGFTFSTYAMSWVRQAPGKGLEWVASIRSGGTTYYPDSVKGRFTISRDNSKNSLYLQMNSLRAEDTAVYYCTRGIDWGQGTTVTVSS VL: DIQMTQSSLSASVSLGDRVTITCKASQSVNNDVAWYQQKPGKAPRLLIYYASNRYTGVPSRFSGSGSGTDFTFTISSLQPEDLATYFCQQDYSSWTFGGGTKVEIKR
6 | 0.404 nM | PR302334-6 (antibody, human IgG1, kappa, V domains shown) VH: EVKLVESGGGLVKPGGSLKLSCAASGFTFSTYAMSWVRQTPEKRLEWVASIRSGGTTYYPDSVKGRFTISRDNARNILYLQMSSLRSEDTAIYYCTRGIDWGQGTLVTVSA VL: DIQMTQSSLSASVSLGDRVTITCKASQSVNNDVAWYQQKPGKAPRLLIYYASNRYTGVPSRFSGSGSGTDFTFTISSLQPEDLATYFCQQDYSSWTFGGGTKVEIKR
7 | 0.325 nM | PR302334-5 (antibody, human IgG1, kappa, V domains shown) VH: EVKLVESGGGLVKPGGSLKLSCAASGFTFSTYAMSWVRQTPEKRLEWVASIRSGGTTYYPDSVKGRFTISRDNARNILYLQMSSLRSEDTAIYYCTRGIDWGQGTLVTVSA VL: DIQMTQSSLSASVSLGDRVTITCKASQSVNNDVAWYQQKPGKAPRLLIYYASNRYTGVPSRFSGSGSGTDFTFTISSLQPEDIATYYCQQDYSSWTFGGGTKVEIKR
8 | 0.468 nM | PR302334-14 (antibody, human IgG1, kappa, V domains shown) VH: EVQLVESGGGLVQPGGSLRLSCAASGFTFSTYAMSWVRQAPGKGLEWVASIRSGGTTYYPDSVKGRFTISRDNSKNTLYLQMNSLRAEDTAVYYCTRGIDWGQGTTVTVSS VL: NIVMTQTPKFLLVSAGDRITITCKASQSVNNDVAWYQQKPGQSPKLLIYYASNRYTGVPDRFTGSGYGTDFTFTISTVQAEDLAVYFCQQDYSSWTFGGGTNLEIKR
9 | 0.996 nM | PR302334-7 (antibody, human IgG1, kappa, V domains shown) VH: EVQLVESGGGLVQPGGSLRLSCAASGFTFSTYAMSWVRQAPGKGLEWVASIRSGGTTYYPDSVKGRFTISRDNSKNTLYLQMNSLRAEDTAVYYCTRGIDWGQGTTVTVSS VL: EIVMTQSPATLSVSPGERATLSCKASQSVNNDVAWYQQKPGQAPRLLIYYASNRYTGIPARFSGSGSGTEFTLTISSLQSEDFAVYYCQQDYSSWTFGGGTKVEIKR

Molecular target: T1, corticotropin-releasing hormone (CRH) …
Assay: cell-based or functional assay
Remark: another data set of the same source

Row | hCRHR1-Luc 0.5 nM CRH IC50 | Binder
10 | 0.711 nM | PR302341-25 (antibody, human IgG1, kappa, V domains shown) VH: QVQLVQSGAEVKKPGASVKVSCKASGYTFTDYFMKWVRQAPGQRLEWMGVINPNNGDIFYNQKFKGRVTITVDKSASTAYMELSSLRSEDTAVYYCARGTDRALFAYWGQGTLVTVSS VL: DVVMTQTPLSLSVTPGQPASISCRSGQSIVHSDGNTYLEWYLQKPGQSPQLLIYKVSNRFSGVPDRFSGSGSGTDFTLKISRVEAEDLGVYYCFQGSHIPWTFGGGTKVEIKR
11 | 0.243 nM | PR302341-22 (antibody, human IgG1, kappa, V domains shown) VH: QVQLVQSGAEVKKPGASVKVSCKASGYTFTDYFMKWVRQAPGQGLEWMGVINPNNGDIFYNQKFKGRVTMTRDTSISTAYMELSRLRSDDTAVYYCARGTDRALFAYWGQGTLVTVSS VL: DVVMTQSPLSLPVTLGQPASISCRSGQSIVHSDGNTYLEWYQQRPGQSPRLLIYKVSNRFSGVPDRFSGSGSGTDFTLKISRVEAEDLGVYYCFQGSHIPWTFGGGTKVEIKR
12 | 0.518 nM | PR302341-27 (antibody, human IgG1, kappa, V domains shown) VH: QVQLVQSGAEVKKPGASVKVSCKASGYTFTDYFMKWVRQAPGQGLEWMGVINPNNGDIFYNQKFKGRVTMTVDKSISTAYMELSRLRSDDTAVYYCARGTDRALFAYWGQGTLVTVSS VL: DVVMTQTPLSLSVTPGQPASISCRSGQSIVHSDGNTYLEWYLQKPGQSPQLLIYKVSNRFSGVPDRFSGSGSGTDFTLKISRVEAEDLGVYYCFQGSHIPWTFGGGTKVEIKR
13 | 0.043 nM | PR302341-23 (antibody, human IgG1, kappa, V domains shown) VH: QVQLVQSGAEVKKPGASVKVSCKASGYTFTDYFMKWVRQAPGQGLEWMGVINPNNGDIFYNQKFKGRVTMTVDKSISTAYMELSRLRSDDTAVYYCARGTDRALFAYWGQGTLVTVSS VL: DVVMTQSPLSLPVTLGQPASISCRSGQSIVHSDGNTYLEWYQQRPGQSPRLLIYKVSNRFSGVPDRFSGSGSGTDFTLKISRVEAEDLGVYYCFQGSHIPWTFGGGTKVEIKR
14 | 0.169 nM | PR302341-18 (antibody, human IgG1, kappa, V domains shown) VH: QVQLVQSGAEVKKPGASVKVSCKASGYTFTDYFMKWVRQAPGQGLEWMGVINPNNGDIFYNQKFKGRVTMTVDKSISTAYMELSRLRSDDTAVYYCARGTDRALFAYWGQGTLVTVSS VL: DVLMTQTPLSLPVSLGDQASISCRSGQSIVHSDGNTYLEWYLQRPGQSPRLLIYKVSNRFSGVPDRFSGSGSGTDFTLKISRVGAEDLGIYYCFQGSHIPWTFGGGTKLEVKR
15 | 0.104 nM | PR302341-17 (antibody, human IgG1, kappa, V domains shown) VH: QVQLVQSGAEVKKPGASVKVSCKASGYTFTDYFMKWVRQAPGQGLEWMGVINPNNGDIFYNQKFKGRVTMTRDTSISTAYMELSRLRSDDTAVYYCARGTDRALFAYWGQGTLVTVSS VL: DVLMTQTPLSLPVSLGDQASISCRSGQSIVHSDGNTYLEWYLQRPGQSPRLLIYKVSNRFSGVPDRFSGSGSGTDFTLKISRVGAEDLGIYYCFQGSHIPWTFGGGTKLEVKR
16 | 0.273 nM | PR302341-26 (antibody, human IgG1, kappa, V domains shown) VH: QVQLVQSGAEVKKPGASVKVSCKASGYTFTDYFMKWVRQAPGQGLEWMGVINPNNGDIFYNQKFKGRVTMTVDKSISTAYMELSRLRSDDTAVYYCARGTDRALFAYWGQGTLVTVSS VL: DVVMTQTPLSSPVTLGQPASISCRSGQSIVHSDGNTYLEWYQQRPGQPPRLLIYKVSNRFSGVPDRFSGSGAGTDFTLKISRVEAEDLGVYYCFQGSHIPWTFGGGTKVEIKR
